One assay relates to ADAM17. The settings on record: mouse embryonic fibroblasts; cited from earlier work.
In a further assay the test system is Langerin-DTA mice. As to the kind of experiment: UVR-induced keratinocyte apoptosis and monocyte accumulation in ears of Langerin-DTA mice. The settings on record: 2 ug per ear 15 minutes prior to UVR, 24 hours after UVR.
The next assay relates to MRL-Faslpr mice. As to the kind of experiment: Multi-day UVR lesion development in MRL-Faslpr SLE model mice with topical treatment. It counts as in vivo, mouse. As to the method:
FIGS. 8A-8C. Topical EGFR ligand reduces photosensitivity. (8A) Experimental scheme for (B-C) (n=4 mice). MRL-Faslpr mice ears and back skin were topically treated with HB-EGF for 2 days before and on the first day of UVR exposure and examined 24 hours after the final exposure. Ears were treated with Control plus vehicle, UVR plus vehicle, UVR+ HB-EGF and MRL-MpJ UVR+ vehicle. The MRL-MpJ ear represents a non-SLE control. (8C) Graph of ear histopathology scores. (8C) Graph of absolute monocyte numbers. Data are from 3 independent experiments. Bars represent means.
FIGS. 18A-18B. EGFR ligand application reduces the severity of UVR-induced skin lesions and lymph node B cell responses in SLE model mice. Mice were treated with HB-EGF (n=4 mice). Lesional areas are seen in magnified images of back lesions (not shown). Neutrophil-dominant infiltrate and ulceration are seen in H&E images of ear skin (not shown). (18A, 18B) Germinal center B cell (18A) and plasma cell (18B) numbers in skin draining lymph nodes (auricular and inguinal) normalized to mice treated with UVR+ vehicle. Each symbol represents either inguinal or auricular lymph nodes from multiple mice. Data from 2 independent experiments. Bars represent means.
The remaining hair on the back skin of the mice was removed using Nair and photographs were taken. The total back area and lesional area (skin affected by erythema, scaliness, crustiness, or epidermal erosion) was measured by a blinded observer using ImageJ software and skin lesions were quantified as percent of back area.
Skin histopathology scoring: A blinded expert dermatopathologist scored H&E stained sections based on dermal inflammation (0-3).

In another assay the test system is LC-Ad17 mice. As to the kind of experiment: UVR-induced keratinocyte apoptosis and monocyte numbers in ears of LC-Ad17 mice. It counts as in vivo, mouse. The settings on record: applied on ears prior to UVR, 24 hours. As to the method:
FIGS. 5A-5H. LC-derived ADAM17 limits UVR-induced keratinocyte apoptosis and skin injury. (5A-5D) Graphs showing WT and LC-Ad17 mice were treated with UVR and analyzed at indicated time points. (5A) Graph showing activated caspase-3+ keratinocytes (n=3-5 mice). […] (5C) Graph showing epidermal thickness (n=3-4 mice). (5D) Graph showing quantification of epidermal permeability (n=3-5 mice). (5E,5F) Vehicle or HB-EGF was applied on the ears prior to UVR exposure (n=3-4 mice). (5E) Graph showing activated caspase-3+ keratinocytes. (5F) Graphs showing absolute (left) and normalized (right) monocyte numbers. (5G,5H) Effect of LC Adam17 deletion or ADAM17 blockade on keratinocyte survival in vitro. Murine keratinocytes with LCs from indicated mice (5G) and human keratinocytes with control-IgG or anti-ADAM17-treated LCs (5H) were exposed to UVR and examined at 24 hours (n=3 mice or 4 human donors). Data are from 3 (5E-5G), 4 (5A), 2 (5H), 5 (5B), and 1 (5C,5D) independent experiments. Bars represent means (5A,5B,5D-H) or medians (5C).

Where [1] appears, read: MRL-Faslpr mice, topical, multi-day UVR.
The mark [2] stands for this setting: MRL/lpr lupus model, topical application.

Description for Langerin-DTA mice: (3C,3D) Mouse ears were treated with vehicle or HB-EGF prior to UVR and examined 24 hours after UVR (n=3-4 mice). (3C) Graph of activated caspase-3+ keratinocytes. (3D) Graph of absolute (left) and normalized (right) monocyte numbers. […] Bars represent means. Error bars depict standard deviations.
For indicated 24 hour experiments, HB-EGF (2 ug; R&D Systems) dissolved in dimethyl sulfoxide (DMSO) was applied to each ear 15 minutes prior to UVR exposure.
For immunofluorescence staining of murine skin, frozen unfixed mouse skin was sectioned, fixed with cold acetone for 10 minutes, and stained as indicated (15). Epidermal activated caspase-3+ cells per high powered field (40× magnification) were quantified by a blinded observer using ImageJ software (NIH) and classified as activated caspase-3+ keratinocytes (Langerin− and CD3−), LCs (Langerin+), or T cells (CD3+).

B1: EGF: EGFR-ligand cited as stimulating ADAM17 (protein, UniProt P01133 23-1207, looked up)
Pro-epidermal growth factor: PQHWSCPEGTLAGNGNSTCVGPAPFLIFSHGNSIFRIDTEGTNYEQLVVDAGVSVIMDFHYNEKRIYWVDLERQLLQRVFLNGSRQERVCNIEKNVSGMAINWINEEVIWSNQQEGIITVTDMKGNNSHILLSALKYPANVAVDPVERFIFWSSEVAGSLYRADLDGVGVKALLETSEKITAVSLDVLDKRLFWIQYNREGSNSLICSCDYDGGSVHISKHPTQHNLFAMSLFGDRIFYSTWKMKTIWIANKHTGKDMVRINLHSSFVPLGELKVVHPLAQPKAEDDTWEPEQKLCKLRKGNCSSTVCGQDLQSHLCMCAEGYALSRDRKYCEDVNECAFWNHGCTLGCKNTPGSYYCTCPVGFVLLPDGKRCHQLVSCPRNVSECSHDCVLTSEGPLCFCPEGSVLERDGKTCSGCSSPDNGGCSQLCVPLSPVSWECDCFPGYDLQLDEKSCAASGPQPFLLFANSQDIRHMHFDGTDYGTLLSQQMGMVYALDHDPVENKIYFAHTALKWIERANMDGSQRERLIEEGVDVPEGLAVDWIGRRFYWTDRGKSLIGRSDLNGKRSKIITKENISQPRGIAVHPMAKRLFWTDTGINPRIESSSLQGLGRLVIASSDLIWPSGITIDFLTDKLYWCDAKQSVIEMANLDGSKRRRLTQNDVGHPFAVAVFEDYVWFSDWAMPSVMRVNKRTGKDRVRLQGSMLKPSSLVVVHPLAKPGADPCLYQNGGCEHICKKRLGTAWCSCREGFMKASDGKTCLALDGHQLLAGGEVDLKNQVTPLDILSKTRVSEDNITESQHMLVAEIMVSDQDDCAPVGCSMYARCISEGEDATCQCLKGFAGDGKLCSDIDECEMGVPVCPPASSKCINTEGGYVCRCSEGYQGDGIHCLDIDECQLGEHSCGENASCTNTEGGYTCMCAGRLSEPGLICPDSTPPPHLREDDHHYSVRNSDSECPLSHDGYCLHDGVCMYIEALDKYACNCVVGYIGERCQYRDLKWWELRHAGHGQQQKVIVVAVCVVVLVMLLLLSLWGAHYYRTQKLLSKNPKNPYEESSRDVRSRRPADTEDGMSSCPQPWFVVIKEHQDLKNGGQPVAGEDGQAADGSMQPTSWRQEPQLCGMGTEQGCWIPVSSDKGSCPQVMERSFHMPSYGTQTLEGGVEKPHSLLSANPLWQQRALDPPHQMELTQ
modifications: Pro-epidermal growth factor
notes: EGFR-ligand cited as stimulating ADAM17
For the molecule B1, the ADAM17 activation entry in the assay with ADAM17 is “activated”.

B2: heparin-binding EGF-like growth factor (protein)
chain: DLQEADLDLLRVTLSSKPQALATPNKEEHGKRKKKGKGLGKKRDPCLRKYKDFCIHGECKYVKELRAPSCICHPGYHGERCHGLSL
As for B2, in the assay with Langerin-DTA mice, the “UVR-induced apoptotic keratinocyte accumulation” value is listed as “reduced” and the UVR-induced monocyte accumulation result is reported as “reduced”. The “severity of UVR-induced skin lesions” value with MRL-Faslpr mice (MRL-Faslpr mice, topical on ears and back for three consecutive days, 6 days UVR) is given as “reduced the severity”. In the assay on MRL-Faslpr mice (setting [1]), the “germinal center B cells in skin-draining lymph nodes” value is on record as “reduced” and the “plasma cells in skin-draining lymph nodes” value is listed as “reduced”. Besides, in the assay with MRL-Faslpr mice (MRL-Faslpr mice, topical, multi-day UVR, 24 hours after final exposure), the monocyte accumulation entry is “reduced”. For the same molecule, in the assay with MRL-Faslpr mice (setting [2]), the photosensitivity entry is given as “reduces” and the “skin-draining lymph node (B cell) responses” value was “reduction”. In the assay with MRL-Faslpr mice (MRL/lpr lupus model, topical application, listed as Hb-EGF), the “skin-draining lymph node (B cell) responses” value is recorded as “reduces”. In addition, in the assay with LC-Ad17 mice, the “UVR-induced skin inflammation (monocyte numbers)” value is “dampened” and the “increased UVR-induced keratinocyte apoptosis” value is “dampened”.

The values are drawn from patent publication US20220273679A1, “METHODS AND COMPOSITIONS FOR TREATING AND PREVENTING DAMAGE TO SKIN” (New York Society for the Relief of the Ruptured and …, priority 2019, published 2022).
